In paper PMC11839890 (European Journal of Nuclear Medicine and Molecular Imaging, 2024):
Like-named read-outs stand apart in the source and are kept apart here. Non-standard residues stand in square brackets, D forms with d. Residues, ends and D or L forms follow the SMILES beside them. *: point of attachment. DOTA = O=C(O)CN1CCN(CC(=O)O)CCN(CC(=O)*)CCN(CC(=O)O)CC1; 1Nal = N[C@@H](Cc1cccc2ccccc12)C(=O)O; NMeNle = CCCC[C@H](NC)C(=O)O

What was measured:
[1] = set-up: method as in PMID 34208516; conditions: established for humans from the rat study; cited from earlier work
[2] = Extended single-dose toxicity study in Wistar rats; conditions: male, rat, in vivo, intravenous, for humans
Method: The first clinical dose for the therapeutic application was established based on a previous extended singe-dose toxicity study performed on the chemical precursor DOTA-MGS5 in a GLP-compliant laboratory (BSL BIOSERVICE Scientific Laboratories Munich GmbH, Planegg/Munich, Germany). According to applicable guidelines a targeted programme of non-clinical testing was followed. The safety was assessed in a single species and no repeated dose study was performed, as complete clearance between administrations is expected. The study was conducted in male Wister rats and included three dose groups and one control group. The histopathological examination was focused on the main target organs.

[3] = tested on: A431-CCK2R cells; conditions: cited from earlier work; for Bmax: A431-CCK2R cells, nM printed only with the first value of the sentence; for Kd: same cell line (A431-CCK2R), nM printed only with the PP-F11N value
[4] = in vivo; conditions: mouse; for tissue uptake at 4 h: BALB/c nude (athymic), total radioactivity
Method: Biodistribution studies were performed in female athymic BALB/c nude mice (Charles River Laboratories, Sulzfeld, Germany) with A431-CCK2R xenografts induced and animals treated as described previously. The study was approved by the Austrian Ministry of Science (2022–0.351.553). […] Statistical analysis was performed on the data sets using the unpaired two-tailed t-test with a significance level of 0.05.

[5] = tested on: tumour; conditions: in vivo; cited from earlier work
[6] = tested on: A431-CCK2R xenografts; assay: Biodistribution up to 7 days p.i. / preclinical pharmacokinetics in A431-CCK2R xenografted BALB/c nude mice; assay type: in vivo; conditions: mouse, in vivo
Method: (§1) The study was approved by the Dutch animal ethics committee (CCD) of the Radboud University and the Nijmegen Medical Centre animal ethics committee (RUDEC) (2020–0007–020). Mice were inoculated with A431-CCK2R cells (2 × 10^6 in 200 μL DMEM medium) at an age of 8–10 weeks. […] Samples were collected, weighted and measured in a gamma counter together with a 1% standard of the injected dose. Results were expressed as percentage of injected activity per gram of tissue (%IA/g), and tumour-to-organ activity ratios were calculated for selected organs. The biodistribution data were used to calculate the kinetics in mouse organs and A431-CCK2R xenografts. A detailed description of the dosimetry calculations and extrapolation from mice to humans can be found in the Supplementary Materials. A one-compartment distribution model was used to characterize the time-activity curves, which were fitted with a single-exponential function implementing Graphpad Prism software. […] Animal dosimetry was performed using the RADAR mouse phantom. The mouse phantom organ weights were used to translate the time-integrated activity concentration coefficients [TIAC] into the regular TIAC. The absorbed dose per given activity was calculated using the MIRD equation (medical internal radiation dose) and the S values obtained from the 25 g RADAR mouse phantom.

[7] = as above; assay type: in vivo; conditions: female, mouse, iv, total radioactivity
Method: as §1

[8] = molecular target: T1, human CCK2R (Homo sapiens, UniProt P32239); assay: Saturation binding on A431-CCK2R cells; conditions: 4°C, read-out: dissociation constant (Kd)
T1 construct: expressed in transfected cells; host or cells: A431 human epidermoid carcinoma cells, stably transfected (plasmid pCR3.1), provided by Dr. Luigi Aloj
T1 sequence (P32239 1-447): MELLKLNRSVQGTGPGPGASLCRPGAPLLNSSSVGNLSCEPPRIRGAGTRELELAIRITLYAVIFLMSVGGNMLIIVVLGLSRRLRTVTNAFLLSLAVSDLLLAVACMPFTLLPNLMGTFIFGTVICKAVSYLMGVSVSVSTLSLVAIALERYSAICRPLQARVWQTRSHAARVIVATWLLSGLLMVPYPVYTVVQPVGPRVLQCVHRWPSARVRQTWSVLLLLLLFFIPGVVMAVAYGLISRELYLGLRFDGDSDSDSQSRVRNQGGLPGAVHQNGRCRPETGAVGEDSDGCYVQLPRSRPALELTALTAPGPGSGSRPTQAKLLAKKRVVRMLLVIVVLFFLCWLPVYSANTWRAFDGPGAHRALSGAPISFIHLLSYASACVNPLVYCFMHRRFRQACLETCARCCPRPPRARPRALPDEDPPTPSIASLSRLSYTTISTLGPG
Method: The saturation binding assay was performed on A431-CCK2R cells plated 2 days prior to the assay at a density of 1×10^6 cells per well in 6-well plates. […] Before recovering the cell-associated radioactivity from the wells by using 1 M NaOH (two times), cells were washed twice with ice-cold phosphate-buffered saline (PBS). The radioactivity was then counted using a gamma counter (2480 Wizard2 3”, PerkinElmer Life Sciences and Analytical Instruments, formerly Wallac Oy, Turku, Finland) and non-specific binding was subtracted. For normalization to the number of cells, cells from three different wells were trypsinized and counted by Beckman Coulter Vi-CELL AS cell viability analyser (Beckman Coulter, Fullerton, CA, USA). Three independent assays were performed in triplicate. Binding curves were analysed using GraphPad Prism version 10.1.2 for Windows (GraphPad Software, Boston, Massachusetts USA).

[9] = female, iv, 20 pmol peptide, kidney uptake
[10] = female, iv, 20 pmol peptide, stomach uptake
[11] = female, iv, 20 pmol peptide, tumour uptake
[12] = BALB/c nude (athymic), in vivo, 20 pmol of peptide, Uptake, A431-CCK2R tumour
[13] = BALB/c nude (athymic), in vivo, 20 pmol of peptide, Uptake, blood
[14] = BALB/c nude (athymic), in vivo, 20 pmol of peptide, Uptake, heart
[15] = BALB/c nude (athymic), in vivo, 20 pmol of peptide, Uptake, kidney
[16] = BALB/c nude (athymic), in vivo, 20 pmol of peptide, Uptake, liver
[17] = BALB/c nude (athymic), in vivo, 20 pmol of peptide, Uptake, lung
[18] = BALB/c nude (athymic), in vivo, 20 pmol of peptide, Uptake, pancreas
[19] = BALB/c nude (athymic), in vivo, 20 pmol of peptide, Uptake, stomach
[20] = athymic BALB/c nude, in vivo, Uptake, femur
[21] = athymic BALB/c nude, in vivo, Uptake, heart
[22] = athymic BALB/c nude, in vivo, Uptake, intestine
[23] = athymic BALB/c nude, in vivo, Uptake, muscle
[24] = athymic BALB/c nude, in vivo, Uptake, spleen

## CCCC[C@@H](C(=O)N[C@@H](CC(=O)O)C(=O)N[C@@H](Cc1cccc2ccccc12)C(N)=O)N(C)C(=O)[C@H](Cc1c[nH]c2ccccc12)NC(=O)CNC(=O)[C@H](Cc1ccc(O)cc1)NC(=O)[C@H](C)NC(=O)[C@@H](CCC(=O)O)NC(=O)CN1CCN(CC(=O)O)CCN(CC(=O)O)CCN(CC(=O)O)CC1 [DOTA-MGS5, DOTA-DGlu-Ala-Tyr-Gly-Trp-(N-Me)Nle-Asp-1-Nal-NH2]
[1]
  NOAEL (no observed adverse effect level): 0.4 mg/kg body weight
[2]
  1/100 of NOAEL: 4 µg/kg

## [^177Lu]Lu-DOTA-PP-F11: 177Lu-labelled DOTA-(DGlu)6-Ala-Tyr-Gly-Trp-Met-Asp-Phe-NH2 (AYGWMDF; 177Lu-DOTA-(DGlu)6, C-terminal amide; printed: Ala-Tyr-Gly-Trp-Met-Asp-Phe-)
[3]
  Bmax: 0.65 ± 0.06 nM
  Kd: 41.7 ± 9.7 nM

## CCCC[C@@H](C(=O)N[C@@H](CC(=O)O)C(=O)N[C@@H](Cc1ccccc1)C(N)=O)N(C)C(=O)[C@H](Cc1c[nH]c2ccccc12)NC(=O)CNC(=O)[C@H](Cc1ccc(O)cc1)NC(=O)[C@H](C)NC(=O)[C@@H](CCC(=O)O)NC(=O)CN1CCN(CC(=O)O)CCN(CC(=O)O)CCN(CC(=O)O)CC1 [[^111In]In-DOTA-[(N-Me)Nle^6]MG11, metal not drawn] ({DOTA}-[dE]AYGW[NMeNle]DF-NH2)
[4]; [9]
  tissue uptake at 4 h: 3 ± 0.3 %ID/g
[4]; [10]
  tissue uptake at 4 h: 2.9 ± 0.6 %ID/g
[4]; [11]
  tissue uptake at 4 h: 12.3 ± 4.2 %ID/g

## CCCC[C@@H](C(=O)N[C@@H](CC(=O)O)C(=O)N[C@@H](Cc1cccc2ccccc12)C(N)=O)N(C)C(=O)[C@H](Cc1c[nH]c2ccccc12)NC(=O)CNC(=O)[C@H](Cc1ccc(O)cc1)NC(=O)[C@H](C)NC(=O)[C@@H](CCC(=O)O)NC(=O)CN1CCN(CC(=O)O)CCN(CC(=O)O)CCN(CC(=O)O)CC1 [[^111In]In-DOTA-MGS5, metal not drawn]
[4]; [9]
  tissue uptake at 4 h: 3.9 ± 0.5 %ID/g
[4]; [10]
  tissue uptake at 4 h: 8.2 ± 2.4 %ID/g

## [^111In]In-DOTA-MG11: 111In-labelled DOTA-MG11 (DOTA-DGlu-Ala-Tyr-Gly-Trp-Met-Asp-Phe-NH2) ({DOTA}-[dE]AYGWMDF-NH2; also: 111In complexed by DOTA)
[5]
  tumour uptake: 2–3 % ID/g

## [^111In]In-DOTA-PP-F11: 111In-labelled DOTA-(DGlu)6-Ala-Tyr-Gly-Trp-Met-Asp-Phe-NH2 (AYGWMDF; 111In-DOTA-(DGlu)6, C-terminal amide; printed: Ala-Tyr-Gly-Trp-Met-Asp-Phe-)
[3]
  Bmax: 1.21 ± 0.06 nM
  Kd: 15.9 ± 2.2 nM

## CSCC[C@H](NC(=O)[C@H](Cc1c[nH]c2ccccc12)NC(=O)CNC(=O)[C@H](Cc1ccc(O)cc1)NC(=O)[C@H](C)NC(=O)[C@@H](CCC(=O)O)NC(=O)CN1CCN(CC(=O)O)CCN(CC(=O)O)CCN(CC(=O)O)CC1)C(=O)N[C@@H](CC(=O)O)C(=O)N[C@@H](Cc1cccc2ccccc12)C(N)=O [[^111In]In-DOTA-[1Nal^8]MG11, metal not drawn] ({DOTA}-[dE]AYGWMD[1Nal]-NH2)
[4]; [9]
  tissue uptake at 4 h: 1.1 ± 0.1 %ID/g
[4]; [10]
  tissue uptake at 4 h: 1.2 ± 0.3 %ID/g
[4]; [11]
  tissue uptake at 4 h: 1.2 ± 0.2 %ID/g

## CCCC[C@@H](C(=O)N[C@@H](CC(=O)O)C(=O)N[C@@H](Cc1cccc2ccccc12)C(N)=O)N(C)C(=O)[C@H](Cc1c[nH]c2ccccc12)NC(=O)CNC(=O)[C@H](Cc1ccc(O)cc1)NC(=O)[C@H](C)NC(=O)[C@@H](CCC(=O)O)NC(=O)CN1CCN(CC(=O)O)CCN(CC(=O)O)CCN(CC(=O)O)CC1 [[^177Lu]Lu-DOTA-MGS5, metal not drawn]
[6]; female, BALB/c nude (athymic), iv, 20 pmol of peptide, 24 h
  Uptake, blood: 0.013±0.002 %IA/g
[6]; female, athymic BALB/c nude
  half-life of blood clearance: 2.8 h
[6]
  biological half-life of clearance from the tumour: 18.2 h
[7]; BALB/c nude (athymic), A431-CCK2R tumour xenograft, 20 pmol of peptide, A431-CCK2R xenograft, 1h p.i., i.v., n = 5, read-out: Uptake, A431-CCK2R tumour
  tissue uptake at 1 h: 68.1 ± 10 %ID/g
[7]; [12]
  tissue uptake at 24 h: 28.9 ± 7.2 %ID/g
  tissue uptake at 72 h: 12.6 ± 0.3 %ID/g
  tissue uptake at 168 h: 2 ± 0.5 %ID/g
[7]; [13]
  tissue uptake at 1 h: 1.9 ± 0.4 %ID/g
  tissue uptake at 24 h: 0.01 ± 0.002 %ID/g
  tissue uptake at 72 h: 0.004 ± 0.002 %ID/g
  tissue uptake at 168 h: 0.01 ± 0.01 %ID/g
[7]; [14]
  tissue uptake at 1 h: 0.8 ± 0.2 %ID/g
  tissue uptake at 24 h: 0.05 ± 0.01 %ID/g
[7]; [15]
  tissue uptake at 1 h: 3.7 ± 0.4 %ID/g
  tissue uptake at 24 h: 2 ± 0.2 %ID/g
  tissue uptake at 72 h: 1 ± 0.1 %ID/g
  tissue uptake at 168 h: 0.4 ± 0.1 %ID/g
[7]; [16]
  tissue uptake at 1 h: 1.3 ± 0.2 %ID/g
  tissue uptake at 24 h: 0.5 ± 0.1 %ID/g
  tissue uptake at 72 h: 0.2 ± 0.1 %ID/g
  tissue uptake at 168 h: 0.08 ± 0.01 %ID/g
[7]; [17]
  tissue uptake at 1 h: 4.6 ± 1.9 %ID/g
  tissue uptake at 24 h: 0.2 ± 0.1 %ID/g
  tissue uptake at 72 h: 0.1 ± 0.04 %ID/g
  tissue uptake at 168 h: 0.04 ± 0.01 %ID/g
[7]; [18]
  tissue uptake at 1 h: 1.7 ± 0.5 %ID/g
  tissue uptake at 24 h: 0.9 ± 0.2 %ID/g
  tissue uptake at 72 h: 0.7 ± 0.2 %ID/g
  tissue uptake at 168 h: 0.6 ± 0.1 %ID/g
[7]; [19]
  tissue uptake at 1 h: 8.1 ± 0.9 %ID/g
  tissue uptake at 24 h: 4.9 ± 0.4 %ID/g
  tissue uptake at 168 h: 1.3 ± 0.1 %ID/g
[7]; [20]
  tissue uptake at 1 h: 0.3 ± 0.1 %ID/g
  tissue uptake at 24 h: 0.052 ± 0.008 %ID/g
  tissue uptake at 72 h: 0.032 ± 0.007 %ID/g
  tissue uptake at 168 h: 0.06 ± 0.02 %ID/g
[7]; [21]
  tissue uptake at 72 h: 0.026 ± 0.005 %ID/g
  tissue uptake at 168 h: 0.018 ± 0.004 %ID/g
[7]; [22]
  tissue uptake at 1 h: 1.1 ± 0.3 %ID/g
  tissue uptake at 24 h: 0.17 ± 0.02 %ID/g
  tissue uptake at 72 h: 0.1 ± 0.01 %ID/g
  tissue uptake at 168 h: 0.04 ± 0.01 %ID/g
[7]; [23]
  tissue uptake at 1 h: 0.3 ± 0.2 %ID/g
  tissue uptake at 24 h: 0.04 ± 0.01 %ID/g
  tissue uptake at 72 h: 0.01 ± 0.003 %ID/g
  tissue uptake at 168 h: 0.018 ± 0.005 %ID/g
[7]; [24]
  tissue uptake at 1 h: 0.6 ± 0.1 %ID/g
  tissue uptake at 168 h: 0.09 ± 0.01 %ID/g
[8]
  Kd: 5.25 ± 1.61 nM
[4]; uptake in A431-CCK2R xenografts
  tissue uptake at 4 h: 22.9 ± 4.7 %ID/g
[4]; female, iv, 20 pmol peptide, uptake in A431-CCK2R xenografts
  tissue uptake at 4 h: 31.9 ± 12.8 %ID/g
[4]; female, athymic BALB/c nude, tumour uptake
  tissue uptake: ~23 %ID/g
